# Reference: the nanobody polyreactivity screen of Harvey et al. (2022)
# Test: yeast display, Sf9 membrane polyspecificity reagent, FACS + sequencing; frameworks hold sequencing errors
# How it was run: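 Galactose induction of a Saccharomyces cerevisiae BJ5465 synthetic nanobody display library ran 36–48 hours. The cells were then stained for 1 hour at 4 °C with 10% biotinylated, detergent-solubilized Sf9 membrane reagent, pulled down on streptavidin microbeads and FACS-sorted into low and high (top ~1%) gates on expression and reagent-binding fluorescence. Labels for polyreactivity follow the gate of origin.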
row,Sequence,polyreactivity (PSR sort gate)
1,QVHLVESGGGLVQAGGSLRLSCAASGFTIYTYAMGGYRQAPGKERELVAAISSSGGSTSYADSVKGRFTISRDNAKITDYLQMNSLKPDDTALYYCNRGWRQQLGYWGQGTQVNVSS,high polyreactivity
2,QVQLVESGGGLVQAGGSLRLSWAASGSTFRNYAMGWYRQAPGKEREFVAAISRSGGSTYYADSVKGRFTISRDNANNPVYLQMISLKPEETAVYYCNKESFWGPDNYWGQGTQETVSS,high polyreactivity
3,QVQLVESGGGLVQAGGSLLLSCAASGSILRMYVMGWYRQAPGKESELVADRSDRGGSTYYADSVKGRFTISRDNAKNTVYLQMNSLKPEDTAVYYCAKDSETAGATYTEYDYWGQGTQVTVSS,low polyreactivity
4,QVQLVESGGGLVQAGGSLRFSCPASGSILTGYAMGWYRQAPGKERELVAAINFSGDNTYYADSVKGRFTISRDNAKNTVFLPMNSLKPEDTAVYYCNADGRYAYVWYDYCGQGTQVTVSS,low polyreactivity
5,QVQLVESGGGLVQAGGSLRLSCAASARTFSAYAMGWYRPAPGKERELVARITSVDSTNYADSVKGRFTISRDNAKNTVYLQMNSLKPEDTAVYYCNATFGYPFVDYDDYWGQGTQVTVSS,low polyreactivity
6,QVQLVESGGGLVQAGGSLRVSCAASGSTFFRYVMGWYRQAPGNERELVARITSSGSTYYADSVKGRFTISRDNAKNTVYLQMNSLKPEDTAVYYCAAVYASYPYRTKFYYWGQGTQVTVSS,high polyreactivity
7,QVQLVESGGGLVQAGGSLRLSCAASGRIFTYNPMGWYRQAPGKERELVAVISRRGGSTYYADSVKGRFTISRDNAKNTVYLQMNSLKPEDTAVYYCAADLPSYPYEYWGQGTQVTVSS,low polyreactivity
8,QVQLVESGGGLVQAGGSLRLSCAASGLTFSVYAMGWYREAPGKERELVAGITSSVGDTYYADSVKGRFTISRDNAKNTVYLQMNSLKPEDTAVYYCNAKYRTFVSKHDYWGQGTQLTVSS,low polyreactivity
9,QVQLVESGGGLVQAGGSLRLSCAASGSTFSHNAMGWYRQAPGKERELVAAISWSGGRTYADSVKGRFTISRDNAKNTVYLQMNSVKPDDTAVYYCNKVSYPSTSSSWFDYWGQGTQVTVSS,low polyreactivity
10,QVQLVESGGGLVQAGGSLRLSCAASGSIFFDYAMGWYRQAPGKETELVAAMSSTGGSTYYADSVKGRFTISRDNSKNTVYLQMNSLIPEDTAVYYCNARYYSYSSPYDYWGEGTQVTVSS,high polyreactivity
11,QVHLVESGGGLVQAGGSLRISCAASGRIFRRYAMGWYRQAPGKERELVAAITRSGGSTYYADSVKGRFTISRDNAKNTVYLQMNSLKPEDTAVYYCNAPSSLGTDYDYWGQGTQVTVSS,high polyreactivity
12,QVQLVESGGGLYQAGGSLRLSSAASGRIFPWNTMGWYRQAPGKERELVAGINNGDRTYYADSVKGRFTISRDNAKNTVYLQMNSQKPEDTAVYYCAVDTWYFLFQYGYYQEGDYWGQGTQVTVSS,low polyreactivity
13,QVQLEESGGGLVQAGGSLRLSCAASGSIFYQYDMGWYRQAPGKERELVAAITQRGGRTYYADSVKGRFTISRDNAKNTVDLKMNSLKPELTAVYYCAADNDSYWGYVYWGQGTQVTVSS,high polyreactivity
14,QVQLVESGGGLGQAGGSLRLSCAASGRIFIDYAMGWYRQAPGKERELVAAITYSTGGTYYGDSVKGRFTISRDNAKNTVYLQMNSLKPEDTAVYYCNATYVWPGRRRDGYWGQGTQVTVSS,low polyreactivity
15,QVQLVESGGGLVQAGGSLRLSCAASGFIFYKYAMGWYRQAPGKERELVAAITRSGGSTFYADSVKGRFTISRDNAKNTVYLQMNSLKPEDTAVYYCAADAIVQVTPRPRRYDYWGQGTQVTVSS,high polyreactivity
16,QVQLVESGGGLVQAGGSLRLSCAASGRTFAKSAMGWSRQAPGKERELVAAIRWSGGSTYYADSVKARFTISRDNAKNTVYLQMNSLKPEDTAVYYCATERFLLGLGYDYWGQGTQVTVSS,high polyreactivity
17,QVQLVESGGGLVQAGGSLRLSCAASGSIFKYYAMGWYRQAPGKERELVAAIDWSGGNTYADSVKGRFTISRDNAKNTVYLQMNSLKPEDTAVYYCNAPGFRRLWGFGYDYWGQGTQVTVSS,high polyreactivity
18,QVQLVESGGGLVQAGGSLRLSCAASGSTFRYYAMGWYRQAPGKERELVAAISARGTSTYYADSVKGRFTISRDNAKNTVYLQMNSLKPEDTAVYYCNDYLHATEYDYWGQGTQVTVSS,high polyreactivity
19,QVQLVESGGGLVQAGGSLRLSCAASGRIFKYYAKGWYRQAPGKERELVAAITSSGVSTYADSVKGRFTISRDNAKNTVYLQMNSLKPEDTAVYYCAADYVREGLGYDYWGQGTQVTVSS,low polyreactivity
20,QVQLVESGGGLVQAGGSLRLSCAASGSIFGTNGMGWYRQAPGKERELVAAITRRGGSTYADSVKGRFTISRDNAKNTVYLQMNSLKPEDTAVYYCAVDQGYVVRLAWIYGYWGQGTQVTVSS,low polyreactivity
21,QDQLVESGGGLVQAGASLRLSCAASGFIFVFNAMGWYRQAPGKERELVAAINGGDITNYADSVKGRFTISRDNAKNTVYLQMTSLKPEDTAVYYCAADGEDSLWTGYDYDYWGQGTQVTVSS,low polyreactivity
22,QVQLVESGGGLVQAGGSLRLSCAASGYIFLGYDMVWYRQAPGKERELVAVINWSGGRTRYADSVKGRFTISRDNAKNTVYLQMNSLKPEDTAVYYCAAERSITYDYWGQGSQVTVSS,high polyreactivity

row,Sequence,polyreactivity (PSR sort gate)
1,QVQLVESGGGLVQAGGSLRLSCAASGSTFVVNAMGWYSLAPGKERELVAAITQDGDGTYYADSVKGRFTISRDNAKNTVYLQMNSLKPEDTAVYYCAAYPFSGPYDEFDYWRQGTQVTVSS,low polyreactivity
2,QVQLVESGGGLVQAGGSLRLSCAAYGGTFYYYAMGWYRQAPGKEREFVAAITWTGGRTYYADSVKGRFTISRDNAKNTVYLQMNSLKPEDTAVYYCAASDRYGGRDYWGQGTQVTVSS,high polyreactivity
3,QVQLQESGGGLVQAGGSLRLSCAASGTIFRFRYMGWHRQAPGKERELVAGINGGTTTYYADSVIGRFTISRVNAKNTVYLQMKSLKPDDTAVYNCAAGASRLTYYDYWGQGTQVTVSS,low polyreactivity
4,QVQLVESGGGLVQAGGSLRISCAASGFIFGGYAMGWYRQAPGKERELVAAISYSGGSTYYADSVKGRFTISRDNAKNTVYLQMNSLKPEDTAVYYCAVGYPYRYDYWGQGTQVTVSS,high polyreactivity
5,QVQLVESGGGLVQAGGSLRLSCAAYGRIFNEYAKGWYRQAPGKERELVAAITYSDDSTYYADSVKGRFTISRDNAKNTVYLQLNSLKPEDTAVYYCNADTPVWDGHAYPVDYWGQGTQVTVSS,low polyreactivity
6,QVQLVESGGGLVQAGGSLRLSCAASGITFEPYAMGWDREAPGKEREFVSDNTWSGGSTYYADSVKSRFTISRDNANNTVYLQMNSLKPEDTAVYYCAADGWTSYWSDYWGQGTQVTVSS,low polyreactivity
7,QVQLVESGGGLVQAGGSLRLSCAAYGGIFSYNAKGWYSQAPGKEREFVASISSSGGRTYYADSVKGRFTISRDNAQNTVYLQMKSLKPEDTAVYYCAKRGQLRHYSWGQGTQVTVSS,low polyreactivity
8,QVQLVESGGGLVQAGGSLRLSCAASGRIFFANTMGWYRQATGKERELVAAISLSSGSRYYADSVKGRFTISRDNAKNTVYLQMNSLKPEDTAVYYCAARGYSHVASRLYYYWGQGTQVTVSS,high polyreactivity
9,QVQLVESGGGLVQAGVSLRLSCAASMGWYRQAPGKERELVAAITRGGTTYYADSVQGRFTISRDNAKNTVYLQMNSLKPEDTAVYYGAKAGPGFLYDHWGQGTQVTVSS,high polyreactivity
10,QVQLVESGGGLVQAGGSLRLSCAASGSTFDHNAMGWYRQAPGKEREFVAAISARGGITYYADSVKGRFTISRDNAKNTVYLQMNSLKPEDTAVYYCADVFGDYWSSQWSYAYGYWGLGTQVTVSS,high polyreactivity
11,QVQLVESGGGLVQAGGSLRLSCAASGFTFVNYAIGWYRQAPGKERELVAAIRRSGSRTYYADSVKGRFTISRDNAKNTVYLQMNSLKPEDTAVYYCAAVWYRLYGYWGQGTQVTVSS,low polyreactivity
12,QVQLVESGGGLVQAGGSLSLSCAASGSTFGSNAMGWYRQAPAKERELVAAISWSGGRTYYADSVKGRFTISRDNAKNTVYLQMNRLIPEDTAVYYCYARQFRTMGYWGQGTQVNVSS,high polyreactivity
13,QVQLVESGGGLVQAGGSLRLTCAASGFIFPLYTMGWYRQAPGKERELVAAITGSGGSTYYADSVKGRFTISRDNAKNTVYLQMNSLKPEDTAVYYCAKDYTYGMDWGQGTQVTVSS,low polyreactivity
14,QVQLVESGGGLVQAGGSLRLSCAASGSIIGRNAMGWYRQAPGQEREMVAAISTRGGRTYYADSVKGRFTISRDNAKNNDYLQMNSLKPEDTAVYYCAAVGPYRWYDYWGQGTQVTVSS,high polyreactivity
15,QVQLVESGGGLVQAGGSLRLSCAASGSIFRYYAMGWYRQAPGKEREFVAAITRSGGSTTYADSVKGRFTISRDNAKNTVYLQMNSLKPEDTAVYYCNAKSSRFQVFNYGYWGQGTQVTVSS,high polyreactivity
16,QVQLVESGGGLVQAGGSLRLSCAASGSIFGFYAMGLYIQEPGKERELVAAITSGDSTHYADSVKGRFTISRDNAKNTVYLQMNSLKPEDTAVYYCATEYLYVDFFIRYDYWGQGTQVTVSS,low polyreactivity
17,QVQLVESAGGLVQAGGSLRLSCAASGSIFPTNTMGWYRQAPGKERELVATIRKSSGRTYYADSVKGRFTISRDNAKNTVYLQMNSLKPEDTAVYYCNARRYSGALRYDYWGQGTQVTVSS,high polyreactivity
18,QVQLVDSGGGLVQAGGSLRIIRAASGSISGYNAMGWYRQAPGKERELVAAIYRSDGKDYADSVKGRFTISRDNAKNTVYLQMNSMIPEDTAVYYCIAVKWSVVGYVLGFYRDDYWGQGTQVTVSS,low polyreactivity
19,QVQLVESGGGLVQAGGSLRLSCAASGNILGSYAMGWYRQAPWKQRELVAAITWSGGTTYYADSVKGRFTISCDNAKNTVYLQMNSLKPEDTAVYYCAVEIVLTRFDYWGQGTQVTVSS,low polyreactivity
20,QVQLVESGGGLVQAGGSLRLSCAASGRTLRKYAMGWYRQAPGKERELVAAITTSGGSTYYADSVKGRFTISRDNAKNTVYLQMNSLKPDDTAVYYCNAARYYAYIGDYWGQGTQVTVSS,high polyreactivity
21,QVQLVESGGGLVQAGGSLRLSCAASGRTFWYYAMGWYRQAPGTERELVAAITYRGTRTYADSVKGRFTISRDNAKNTVYLQMNSQKPEDTPVYYCAKDVGYRYSGTMDYWGQGTQVTVSS,high polyreactivity
